# ± gives the standard deviation of the averaged measurements.
# Tested on: ATP
# Test: switch fluorescence ratio, 500 uM ATP over buffer (Cy3 cluster intensity, sum of 5 cycles each) (fold (ratio)); higher = stronger signal-on switching upon ATP binding; sequences stand for … in TCGTCGGCAGCGTCAGATGTGTATAAGAGACAGTTTTTTTTTTTTTTTTTTTTTTTTT…TC
# Conditions: aptamer strand: ATP DNA aptamer (quencher-CACCTGGGGGAGTATTGCGGAGGAAGG + anchor), 100 nM annealed; ATP concentration: 500 uM
# How it was run: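 Cy3-labelled switching-strand clusters on a modified Illumina MiSeq flow-cell were annealed to 100 nM quencher-labelled ATP aptamer, imaged in selection buffer, then imaged after 15 min with 500 uM ATP at 22 °C. Five buffer/ATP cycles ran, with NaOH stripping and re-annealing between them. The fluorescence ratio is summed target-cycle over summed buffer-cycle Cy3 intensity per cluster, averaged per switch-domain sequence. Clusters outside 100-1000 RFU were excluded.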
# 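Also: ATP exposure 15 min at 22 °C before imaging.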
row,Sequence,switch fluorescence ratio
1,TAGATTTTAT,1.01 ± 0.042
2,TAGATTTTTG,0.982 ± 0.036
3,TAGCAATGGC,2.42 ± 0.14
4,TAGCACGCGG,0.9748 ± 0.0041
5,TAGCAGGACT,1.76 ± 0.22
6,TAGCATCTGT,1 ± 0.03
7,TAGCATGGGG,0.991 ± 0.016
8,TAGCATGGTA,0.976 ± 0.049
9,TAGCATTCAT,0.994 ± 0.0072
10,TAGCCGACGG,1.03 ± 0.058
11,TAGCCTAATG,1.0049 ± 0.00065
12,TAGCCTAGGT,1.02 ± 0.017
13,TAGCCTATTG,0.979 ± 0.038
14,TAGCCTGTTG,0.9667 ± 0.002
15,TAGCGCTGCC,0.984 ± 0.012
16,TAGCGGAAGT,0.999 ± 0.017
17,TAGCGGCGT,0.9938 ± 0.0097
18,TAGCGGGATT,1.02 ± 0.033
19,TAGCGTGAGC,1.02 ± 0.04
20,TAGCTAGATG,1.02 ± 0.022
21,TAGCTATTGT,0.984 ± 0.012
22,TAGCTCAGGG,1.065 ± 0.0032
23,TAGCTGACTG,1.02 ± 0.04
24,TAGCTGGATA,0.9837 ± 0.005
25,TAGCTTCAC,1.142 ± 0.0084

row,Sequence,switch fluorescence ratio
1,TAGCTTGGGA,1.01 ± 0.026
2,TAGCTTGGGG,0.9985 ± 0.0046
3,TAGCTTTAAC,1.0888 ± 0.00092
4,TAGGAAAGGC,0.982 ± 0.027
5,TAGGAAATCT,1.03 ± 0.017
6,TAGGAAATGT,1.07 ± 0.087
7,TAGGAAGAGG,0.986 ± 0.0068
8,TAGGAATTTG,0.998 ± 0.037
9,TAGGAGAGGG,0.968 ± 0.034
10,TAGGAGGAGG,0.984 ± 0.011
11,TAGGAGGCGC,0.937 ± 0.064
12,TAGGAGTGAG,0.979 ± 0.026
13,TAGGATAGTG,0.978 ± 0.043
14,TAGGATCCC,0.981 ± 0.026
15,TAGGATCGGA,0.96 ± 0.032
16,TAGGATGGCC,0.9522 ± 0.0012
17,TAGGATTGGG,0.9894 ± 0.0053
18,TAGGATTTAG,0.994 ± 0.039
19,TAGGATTTTT,1.026 ± 0.0081
20,TAGGCACCGA,1.03 ± 0.053
21,TAGGCACCTG,1.0679 ± 0.00092
22,TAGGCCATAG,1.008 ± 0.0055
23,TAGGCGTAGG,0.9876 ± 0.0018
24,TAGGCTAGGC,0.971 ± 0.022
25,TAGGCTCGG,1.014 ± 0.0019

row,Sequence,switch fluorescence ratio
1,TAGGCTCGGG,0.99 ± 0.038
2,TAGGCTCTTT,0.9777 ± 0.008
3,TAGGCTTTAA,0.976 ± 0.011
4,TAGGGAATGT,1 ± 0.019
5,TAGGGAATTG,1.01 ± 0.011
6,TAGGGACAGG,0.99 ± 0.038
7,TAGGGATCGT,0.98 ± 0.051
8,TAGGGATGAT,0.9705 ± 0.0026
9,TAGGGATTCT,0.995 ± 0.026
10,TAGGGGAAGA,1.003 ± 0.0076
11,TAGGGGATGC,1 ± 0.015
12,TAGGGGCGCG,0.982 ± 0.078
13,TAGGGGGAAA,1.01 ± 0.024
14,TAGGGGGAAC,1.01 ± 0.022
15,TAGGGGGAT,1.01 ± 0.011
16,TAGGGGGCAG,1 ± 0.033
17,TAGGGGGGCG,1.01 ± 0.085
18,TAGGGGGTTA,0.992 ± 0.046
19,TAGGGGTAGA,1.017 ± 0.0054
20,TAGGGGTCGG,0.981 ± 0.048
21,TAGGGGTGCA,1.079 ± 0.009
22,TAGGGGTGTT,1.06 ± 0.12
23,TAGGGGTTTT,1.01 ± 0.024
24,TAGGGTAAGG,0.97 ± 0.035
25,TAGGGTAATT,0.9965 ± 0.0041

row,Sequence,switch fluorescence ratio
1,TAGGGTAGCG,0.99 ± 0.012
2,TAGGGTATG,0.983 ± 0.053
3,TAGGGTCGGG,0.9466 ± 0.0037
4,TAGGGTCTGT,0.999 ± 0.022
5,TAGGGTGCGG,1.03 ± 0.021
6,TAGGGTGCGT,1 ± 0.027
7,TAGGGTGCTT,1.04 ± 0.036
8,TAGGGTTCTT,1.03 ± 0.029
9,TAGGTAAGGT,1.03 ± 0.029
10,TAGGTAGAGT,0.9899 ± 0.006
11,TAGGTAGCGG,0.9996 ± 0.0076
12,TAGGTATATC,0.9843 ± 0.006
13,TAGGTATTGT,1.003 ± 0.0091
14,TAGGTGACTG,0.982 ± 0.037
15,TAGGTGCATA,1.03 ± 0.043
16,TAGGTGGCGC,1.08 ± 0.013
17,TAGGTGTCAT,1.15 ± 0.32
18,TAGGTGTTTT,1.05 ± 0.047
19,TAGGTTGAGT,0.996 ± 0.061
20,TAGGTTGGTC,1.02 ± 0.064
21,TAGGTTTGCG,0.994 ± 0.053
22,TAGTAAATCG,1.007 ± 0.0078
23,TAGTAAATGG,0.999 ± 0.017
24,TAGTAATCTT,1.003 ± 0.0092
25,TAGTAATGTG,0.993 ± 0.022

row,Sequence,switch fluorescence ratio
1,TAGTAATTGG,0.987 ± 0.029
2,TAGTACTGTG,0.998 ± 0.017
3,TAGTAGATGT,1.01 ± 0.036
4,TAGTAGGGGA,1.01 ± 0.039
5,TAGTATGGTA,1.01 ± 0.011
6,TAGTATTAGA,0.993 ± 0.031
7,TAGTCATGCG,1.04 ± 0.026
8,TAGTCCAAAT,0.9738 ± 0.0018
9,TAGTCGAGAT,0.989 ± 0.029
10,TAGTCGCCGA,0.986 ± 0.017
11,TAGTCGGCGC,1 ± 0.047
12,TAGTCTAGGT,1.02 ± 0.025
13,TAGTCTGTTC,1.01 ± 0.045
14,TAGTCTTTAG,1.01 ± 0.0072
15,TAGTGAGGGT,1.01 ± 0.021
16,TAGTGAGTAC,0.93 ± 0.11
17,TAGTGATACG,0.986 ± 0.05
18,TAGTGATGGT,0.973 ± 0.029
19,TAGTGGAAAA,1.02 ± 0.077
20,TAGTGGATGG,1 ± 0.029
21,TAGTGGGAAT,0.968 ± 0.032
22,TAGTGGGGAC,0.9677 ± 0.0027
23,TAGTGTAGGC,1.03 ± 0.014
24,TAGTGTATTC,0.989 ± 0.026
25,TAGTGTCTAG,0.97 ± 0.07

row,Sequence,switch fluorescence ratio
1,TAGTGTGGG,0.99 ± 0.024
2,TAGTGTTTGG,1.02 ± 0.073
3,TAGTTAATTT,1.01 ± 0.034
4,TAGTTACCCG,0.979 ± 0.045
5,TAGTTACTGG,1.05 ± 0.021
6,TAGTTAGGAG,0.9945 ± 0.0081
7,TAGTTAGGCG,0.959 ± 0.028
8,TAGTTATGTT,0.96389 ± 0.00072
9,TAGTTATTAC,1.08 ± 0.14
10,TAGTTATTTG,0.993 ± 0.044
11,TAGTTCGGGG,1.01 ± 0.024
12,TAGTTCTGTT,0.983 ± 0.0077
13,TAGTTGGTGG,0.954 ± 0.046
14,TAGTTTATCA,1.001 ± 0.01
15,TAGTTTCGGC,0.958 ± 0.011
16,TAGTTTGGCT,1.02 ± 0.047
17,TAGTTTGGGA,1.01 ± 0.03
18,TAGTTTGGGG,0.999 ± 0.032
19,TAGTTTGGGT,0.974 ± 0.012
20,TAGTTTGTTA,0.987 ± 0.027
21,TAGTTTTAT,0.973 ± 0.016
22,TAGTTTTCGT,0.9817 ± 0.0012
23,TAGTTTTGTA,0.971 ± 0.05
24,TAGTTTTTAA,1.01 ± 0.008
25,TAGTTTTTCT,0.971 ± 0.022

row,Sequence,switch fluorescence ratio
1,TAGTTTTTTC,0.99 ± 0.021
2,TATAAAAACG,1.11 ± 0.2
3,TATAAAAATT,1.02 ± 0.025
4,TATAAAAGAA,1.04 ± 0.053
5,TATAAAAGAC,1.018 ± 0.01
6,TATAAAATGT,0.993 ± 0.036
7,TATAAAGCAG,1.03 ± 0.024
8,TATAAAGGGC,1.01 ± 0.054
9,TATAAAGGGG,1 ± 0.025
10,TATAAATGAA,0.9921 ± 0.0043
11,TATAAATGAT,1.06 ± 0.047
12,TATAAATTTG,1.01 ± 0.016
13,TATAACATAT,1.03 ± 0.041
14,TATAACATG,1.009 ± 0.0025
15,TATAAGAGCC,0.984 ± 0.043
16,TATAAGGGGC,0.997 ± 0.027
17,TATAAGTGGT,0.992 ± 0.023
18,TATAAGTGTT,1.002 ± 0.0067
19,TATAATCCCT,1.02 ± 0.083
20,TATAATTAAT,0.982 ± 0.029
21,TATACCATTT,1.01 ± 0.015
22,TATACCTTAA,1.051 ± 0.0042
23,TATACTATTG,1.01 ± 0.048
24,TATACTCAGC,1.03 ± 0.014
25,TATACTGTTG,0.976 ± 0.021

row,Sequence,switch fluorescence ratio
1,TATACTTGCC,1.04 ± 0.06
2,TATACTTTAT,1.02 ± 0.037
3,TATAGACAGG,0.989 ± 0.057
4,TATAGAGGTT,0.992 ± 0.015
5,TATAGCAGGG,1.03 ± 0.018
6,TATAGCTACC,1.13 ± 0.043
7,TATAGGGAAA,1.09 ± 0.11
8,TATAGGGAAG,1.02 ± 0.026
9,TATAGGGAGC,0.947 ± 0.017
10,TATAGGGCGG,1.13 ± 0.21
11,TATAGGGGAT,1.032 ± 0.0068
12,TATAGGGGGC,1.03 ± 0.05
13,TATAGGTGTT,1.05 ± 0.028
14,TATAGTCTA,1.01 ± 0.031
15,TATAGTGGAG,1.024 ± 0.0069
16,TATATAGAGC,1.02 ± 0.011
17,TATATAGCGC,0.983 ± 0.044
18,TATATAGGTA,1.01 ± 0.043
19,TATATATAGA,1 ± 0.041
20,TATATATATG,0.955 ± 0.031
21,TATATATTTA,0.988 ± 0.024
22,TATATCAGTT,1.007 ± 0.0087
23,TATATGACGG,0.997 ± 0.027
24,TATATGGATT,0.999 ± 0.015
25,TATATGGCCC,1.02 ± 0.02

# Source: the supplement of paper PMC10126150
